One data set has as its system U2OS (B7-H3+) cells. As to the kind of experiment: Cell viability assay (CellTiter-Glo 2.0, 120-hour) in U2OS cells. Conditions: Homo sapiens, Table 4A, B7-H3 positive, 120-hour treatment. Type of data set: cell-based.
For the next data set, the system named is PA-1 (B7-H3+) cells. Put plainly: Cell viability assay (CellTiter-Glo 2.0, 120-hour) in PA-1 cells. Type of data set: cell-based. As to conditions: Homo sapiens; Table 4A; PA-1, B7-H3 positive; 120-hour treatment.
The next data set has as its system Hs700T (B7-H3+) cells. Put plainly: Cell viability assay (CellTiter-Glo 2.0, 120-hour) in Hs700T cells. Type of data set: cell-based. Conditions: Homo sapiens, Hs 700T, Table 4A, B7-H3 positive, 120-hour treatment.
In another data set the test system is Calu6 (B7-H3+) cells. Put plainly: Cell viability assay (CellTiter-Glo 2.0, 120-hour) in Calu6 cells. Type of data set: cell-based. As to conditions: Homo sapiens, Calu-6; Table 4A; Calu6, B7-H3 positive; 120-hour treatment.
Another data set has as its system NCI-H929 (B7-H3−) cells. Put plainly: Cell viability assay (CellTiter-Glo 2.0, 120-hour) in NCI-H929 cells. Type of data set: cell-based. As to conditions: Homo sapiens; Table 4A; NCI-H929, B7-H3 negative; 120-hour treatment.
In data set [1] the target is T1, human B7-H3 protein (human, UniProt Q5ZPR3 29-534).
T1 construct: Endogenous B7-H3 on human cancer cell lines; also called CD276; B7-H3 receptor
T1 sequence: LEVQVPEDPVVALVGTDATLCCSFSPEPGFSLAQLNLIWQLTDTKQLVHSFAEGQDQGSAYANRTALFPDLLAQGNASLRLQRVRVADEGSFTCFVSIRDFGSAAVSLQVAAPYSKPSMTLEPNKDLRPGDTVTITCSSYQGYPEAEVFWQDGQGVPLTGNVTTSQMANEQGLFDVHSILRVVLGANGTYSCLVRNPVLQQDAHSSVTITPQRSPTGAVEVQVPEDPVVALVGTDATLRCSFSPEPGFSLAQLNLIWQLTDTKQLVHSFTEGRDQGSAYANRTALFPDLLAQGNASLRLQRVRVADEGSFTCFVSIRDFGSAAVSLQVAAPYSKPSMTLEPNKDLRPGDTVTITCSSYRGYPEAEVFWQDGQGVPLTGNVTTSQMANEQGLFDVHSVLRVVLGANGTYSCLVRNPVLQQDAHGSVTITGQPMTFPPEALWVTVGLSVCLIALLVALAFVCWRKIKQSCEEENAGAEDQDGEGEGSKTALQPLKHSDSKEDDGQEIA
As to the kind of experiment: flow cytometry on FaDu cells, PE-labelled goat anti-human secondary antibody, geometric mean fluorescence. On the procedure: (§1) B7-H3 binding: Tumor cell cultures were harvested by non-enzymatic cell dissociation and plated in RPMI1640 supplemented with 10% fetal bovine serum (FBS) in a 96 well plate. A dilution curve of B7H3 antibody was prepared as a 2× solution and added to each well and incubated at 4C for 1 hour. The cells were washed with PBS+2% FBS+5 mM EDTA (FACS Buffer) before incubation with R-Phycoerythrin labeled goat anti-human secondary antibody for 1 hour at 4C. Cells were washed with FACS buffer and analyzed by flow cytometry.

For data set [2], the target named is T1, human B7-H3 protein. As to the kind of experiment: flow cytometry on Hs700T cells, PE-labelled goat anti-human secondary antibody, geometric mean fluorescence. The procedure: as §1
For data set [3], the target named is T1, human B7-H3 protein. Put plainly: flow cytometry on MDA-MB-231 cells, PE-labelled goat anti-human secondary antibody, geometric mean fluorescence. On the procedure: as §1
The target of data set [4] is T1, human B7-H3 protein. As to the kind of experiment: flow cytometry on A549 cells, PE-labelled goat anti-human secondary antibody, geometric mean fluorescence. The procedure:
as §1

Data set [5] deals with T1, human B7-H3 protein. Put plainly: flow cytometry on U2OS cells, PE-labelled goat anti-human secondary antibody, geometric mean fluorescence. The procedure: as §1
The target in data set [6] is T1, human B7-H3 protein. Put plainly: flow cytometry on HCT-116 cells, PE-labelled goat anti-human secondary antibody, geometric mean fluorescence. On the procedure:
as §1

In data set [7] the target is T1, human B7-H3 protein. Put plainly: flow cytometry on SkNBE(2) cells, PE-labelled goat anti-human secondary antibody, geometric mean fluorescence. On the procedure:
as §1

The conditions of data set [8]: cynomolgus monkeys; Loo et al., 2012; cited from earlier work.
Data set [9] has as its system B7-H3-expressing renal cell and bladder carcinoma. Conditions: Loo et al., 2012; cited from earlier work.

The values below come from patent publication US20260248940A1, “Antibody-Drug Conjugates and Uses Thereof” (Vivasor, Inc., priority 2023, published 2026).

With `CC[C@@]1(O)C(=O)OCc2c1cc1n(c2=O)Cc2c-1nc1cc(F)c(C)c3c1c2[C@@H](NC(=O)CO)CC3` [Dxd], the EC50 in the data set on U2OS (B7-H3+) cells was determined as 337 nM; in the data set on PA-1 (B7-H3+) cells, 2 nM; in the data set with Hs700T (B7-H3+) cells, 43.9 nM; in the data set on Calu6 (B7-H3+) cells, 7 nM; with NCI-H929 (B7-H3−) cells it was 4.7 nM.

B1: anti-B7-H3 antibody (B7-H3 VA clone) (antibody, V domains shown)
VH: QVQLVQSGAEVKKPGASVKVSCKASGYTFTDSYMHWVRQAPGQGLEWMGWISPRTGGTDYAQKFQGRVTMTRDTSISTAYMELSRLRSDDTAVYYCARGSSRGNDYWGQGTLVTVSS
VL: QSVLTQPASVSGSPGQSITISCTGTGSDVGGYNYVSWYQQHPGKAPKLIIYDVTKRPSGFSNRFSGSKSGNTASLTISGLQAEDEADYYCSSYTSRRTYVFGTGTKLTVL
notes: IgG/IgG1 appears only as an embodiment; It was detected with a goat anti-human secondary antibody; also called anti-B7H3 VA clone; Sorrento's VA clone
Take B1: the concentration giving a half-maximal response (EC50 (read off the curve)) in the data set with human B7-H3 protein [1] was ~0.2 nM; with human B7-H3 protein [2] it was ~0.5 nM; in the data set with human B7-H3 protein [5] it was ~0.3 nM. Also, the Kd worked out at 0.2 nM with human B7-H3 protein [1]; 0.485 nM with human B7-H3 protein [2]; 0.168 nM in the data set with human B7-H3 protein [3]; 0.192 nM with human B7-H3 protein [4]; 0.257 nM in the data set with human B7-H3 protein [5]; 0.238 nM with human B7-H3 protein [6]. Also, in the data set with human B7-H3 protein [7], binding was characterised by a dissociation constant (Kd) of 0.0968 nM.

B2: Enoblituzumab (antibody, chains of the INN, looked up)
heavy: EVQLVESGGGLVQPGGSLRLSCAASGFTFSSFGMHWVRQAPGKGLEWVAYISSDSSAIYYADTVKGRFTISRDNAKNSLYLQMNSLRDEDTAVYYCGRGRENIYYGSRLDYWGQGTTVTVSSASTKGPSVFPLAPSSKSTSGGTAALGCLVKDYFPEPVTVSWNSGALTSGVHTFPAVLQSSGLYSLSSVVTVPSSSLGTQTYICNVNHKPSNTKVDKRVEPKSCDKTHTCPPCPAPELVGGPSVFLLPPKPKDTLMISRTPEVTCVVVDVSHEDPEVKFNWYVDGVEVHNAKTKPPEEQYNSTLRVVSVLTVLHQDWLNGKEYKCKVSNKALPAPIEKTISKAKGQPREPQVYTLPPSREEMTKNQVSLTCLVKGFYPSDIAVEWESNGQPENNYKTTPLVLDSDGSFFLYSKLTVDKSRWQQGNVFSCSVMHEALHNHYTQKSLSLSPG
light: DIQLTQSPSFLSASVGDRVTITCKASQNVDTNVAWYQQKPGKAPKALIYSASYRYSGVPSRFSGSGSGTDFTLTISSLQPEDFATYYCQQYNNYPFTFGQGTKLEIKRTVAAPSVFIFPPSDEQLKSGTASVVCLLNNFYPREAKVQWKVDNALQSGNSQESVTEQDSKDSTYSLSSTLTLSKADYEKHKVYACEVTHQGLSSPVTKSFNRGEC
notes: "Enoblituzumab (MGA271; from Macrogenics), a humanized mAb targeting B7-H3"
With B2, the “safety findings in toxicology studies” value in data set [8] is given as “no significant safety findings”. Besides, in [9], the “antitumor activity in xenograft models” value is listed as “potent antitumor activity”.
